Experimental data as given in patent publication US20170258870A1.
The star is where a group is joined. Biotin = O=C1N[C@H]2[C@H](CS[C@H]2CCCCC(=O)*)N1; Ttds = NCCCOCCOCCOCCCNC(=O)CCC(=O)*

Target: recombinant GC (Cerezyme, Genzyme Therapeutics) (UniProt P04062)
Test: cell-based or functional assay

GC enzyme activity [times]	half-life of GC activity at 37° C. (stabilization assay) [h]	Binder
5	48	{Biotin-Ttds}-LREIIEAMLKAYQQKLFVTHTVDE-OH [Helix 5 peptide (LIMP-2-derived, L152-E175)]
–	24	{Biotin-Ttds}-LREDDEAMDKAYQQKLFVTHTVDE-OH [3xD Helix 5 peptide]
